Residue numbers refer to the chain shown, from its start.
Assays:
[1] = biological target: T1, recombinant human SLPI (Secretory leukocyte protease inhibitor), R&D Systems Cat#260-PI (human, UniProt P03973 25-131, biotinylated in the streptavidin-plate ELISAs and on SRBCs); assay: ELISA, recombinant antibody in HEK 293 supernatant titrated 1:2 on biotinylated human SLPI
T1 construct: Bought protein; also called biotinylated SLPI; B-Cur12
Source text: After isolation of single plasma cells, mRNA was extracted and reverse transcriptase PCR was used to generate cDNA. The cDNA encoding the variable heavy and light chains was specifically amplified using polymerase chain reaction. The variable heavy chain region was cloned into an IgG2 expression vector, generated by cloning the constant domain of human IgG2 into the multiple cloning site of pcDNA3.1+/Hygro (Invitrogen, Burlington, ON). The variable light chain region was cloned into an IgK expression vector, generated by cloning the constant domain of human IgK into the multiple cloning site of pcDNA3.1+/Neo (Invitrogen, Burlington, ON). The heavy chain and the light chain expression vectors were then co-lipofected into a 60 mm dish of 70% confluent human embryonic kidney 293 (HEK 293) cells and the transfected cells were incubated for 24 hours to secrete recombinant antibody. Supernatant (3 mL) was harvested from the HEK 293 cells and the secretion of intact antibody and binding to SLPI tested ELISA. To detection secretion, 96 well plates were coated with 2 μg/mL of goat anti-human IgG H+L overnight. For detection of SLPI binders, streptavidin plates were coated with biotinylated human SLPI (0.5 μg/mL) overnight at four degrees. The plates were washed five times with dH₂O. Recombinant antibodies titrated 1:2 for 7 wells from the undiluted minilipofection supernatant were added, incubated and the plates were washed five times with dH₂O. Goat anti-human IgG Fc-specific HRP-conjugated antibody was added at a final concentration of 1 μg/mL, incubated for 1 hour at RT and the plates were washed as before. Plates were developed with the addition of TMB for 30 minutes and the reaction was stopped by the addition of 1 M phosphoric acid. Each ELISA plate was analyzed to determine the optical density of each well at 450 nm.

[2] = biological target: T1, recombinant human SLPI (Secretory …); assay: limiting antigen ELISA, biotinylated SLPI coated at 200 ng/ml
Description: (§1) The limiting antigen analysis is a method that affinity ranks the antigen-specific antibodies in B cell culture supernatants. […] Each plate was washed 5 times with dH₂O, before 46 μl/well of 1% milk in PBS with 0.05% sodium azide was added, followed by 4 μl/well of B cell supernatant. After 22 hours at RT on a shaker, the plates were again washed 5 times with dH₂O. Goat anti-Human (Fc)-HRP at 1 μg/ml, 50 μl/well was added. After 1 hour at RT, the plates were again washed 5 times with dH₂O and 50 μl/well of TMB substrate was added. The reaction was stopped by the addition of 50 μl of 1M phosphoric acid to each well and the plates were read at wavelength 450 nm. 42C1, 43H7, 35F1 and 9G12 were chosen for further evaluation and cloning.

[3] = biological target: T1, recombinant human SLPI (Secretory …); assay: ELISA, B cell supernatant on biotinylated SLPI, rescreen
[4] = biological target: T1, recombinant human SLPI (Secretory …); assay: limiting antigen ELISA, biotinylated SLPI coated at 50 ng/ml
Description: as §1

[5] = biological target: T1, recombinant human SLPI (Secretory …); assay: limiting antigen ELISA, biotinylated SLPI coated at 800 ng/ml
Description: as §1

[6] = biological target: T1, recombinant human SLPI (Secretory …); assay: limiting antigen ELISA, biotinylated SLPI coated at 100 ng/ml
Description: as §1

[7] = biological target: T1, recombinant human SLPI (Secretory …); assay: limiting antigen ELISA, biotinylated SLPI coated at 400 ng/ml
Description: as §1

[8] = biological target: T1, recombinant human SLPI (Secretory …); assay: ELISA, B cell supernatant on biotinylated SLPI, primary screen
Description: Anti-SLPI antibody titers were determined by indirect ELISA. Briefly, biotinylated SLPI (0.5 μg/mL) was coated onto Sigma Streptavidin Clear Polystyrene 96 well ELISA plates for 30 minutes at room temperature (RT). The plates were then washed 4× by hand, then pat dried on paper towels. XenoMouse® animal sera from SLPI immunized, or naïve XenoMouse® animals, were titrated out to 6 wells, the last well left blank, in 1% no fat skim milk/PBS at 1:2 dilutions in duplicate from a 1:500 initial dilution. 50 μl was used for each well. The plates were incubated for 1 hour then washed four times. 50 μl of a goat anti-human IgG Fc-specific HRP-conjugated antibody (0.4 μg/mL) was added to each well and incubated for 1 hour at RT. The plates were washed five times with distilled water (dH₂O). The plates were developed with the addition of TMB for 30 minutes and the ELISA was stopped by the addition of 1 M phosphoric acid. The specific titers of individual XenoMouse® animals were determined from the optical density at 450 nm, Table 2. The titers represent the reciprocal dilution of the serum to either SLPI or streptavidin and therefore the higher the number, the greater the humoral immune response. Lymph nodes were harvested for XenoMax® antibody generation from immunized XenoMouse® animals with specific titers to SLPI versus streptavidin as shown in Table 4.
B cells from the harvested animals were cultured and those secreting SLPI-specific antibodies were isolated as described previously (Babcook et al., 1996 Proc. Natl. Acad. Sci. USA, 93:7843-7848). ELISA, performed as described above, was used to identify primary SLPI-specific wells from fifty plates cultured at 500 or 150 cells/well.

T1 sequence (P03973 25-131): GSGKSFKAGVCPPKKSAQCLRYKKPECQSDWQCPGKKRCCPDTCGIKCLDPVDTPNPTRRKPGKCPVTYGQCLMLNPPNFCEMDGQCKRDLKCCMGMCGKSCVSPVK

B1: 35F1 (antibody, human IgG2, V domains shown)
VH: QVQLQESGPGLVKPSQTLSLTCTVSGGSIKSGDYYWSWVRQLPGKGLEWIGYIYYSGSTYYNPSLKSRVTISIDTSKNQFSLKLSSVTAADTAVYYCAREGSYYDSGGFDYWGQGTLVTVSS
VL: not shown
notes: Fully human, XenoMouse XMG2; also called #50; Cur12.1 PL35 F1
For B1, the “Binding to SLPI (titre of supernatant)” value [1] was > 64 reciprocal dilution, the OD [2] was 0.24 OD450 and the “2* OD” value [3] was 0.41 OD450. The OD [4] was 0.17 OD450, the OD [5] was 0.37 OD450 and the OD [6] was 0.2 OD450. For the same binder, the OD [7] was 0.3 OD450 and the “1* OD” value [8] was 0.425 OD450.

B2: 42C1 (antibody, human IgG2, V domains shown)
VH: B1 VH with G27V, K30S, D33G, V39I, L42H, I73V, Y95F, S102E, S106E
VL: not shown
notes: Fully human, XenoMouse XMG2; also called #24; Cur12.1 PL42 C1
With B2 the “Binding to SLPI (titre of supernatant)” value [1] was > 64 reciprocal dilution, the OD [2] was 3.69 OD450 and the “2* OD” value [3] was 2.25 OD450. It also gave an OD [4] of 3.01 OD450, an OD [5] of 3.85 OD450 and an OD [6] of 3.42 OD450. For the same binder, the OD [7] was 3.58 OD450 and the “1* OD” value [8] was 3.23 OD450.

B3: 43H7 (antibody, human IgG2, V domains shown)
VH: QVQLVESGGGVVQPGRSLRLSCAASGFTFSTYGMHWVRQAPGKGLEWVTFIWYDGRNKYYADSVKGRFTVSRDNSKNTLYLQMNSLRAEDTAVYYCARGDDYGDYHPHYYYYGLDVWGQGTTVTVSS
VL: DIVMTQTPLSLSVTPGQPASISCKSSQSLLDSDGKTYLYWYLQKPGQPPQLLIYEVSNRFSGVPDRFSGSGSGTDFTLKISRVEAEDVAYYYCMQSIQLPWTFGQGTKVEIK
notes: Fully human, XenoMouse XMG2; also called #11; Cur12.1 PL43 H7
In the case of B3, the “Binding to SLPI (titre of supernatant)” value [1] is reported as > 64 reciprocal dilution, the OD [2] is reported as 3.52 OD450 and the “2* OD” value [3] is reported as 2.28 OD450. The OD [4] was 1.19 OD450, the OD [5] was 4.1 OD450 and the OD [6] was 2.6 OD450. The OD [7] was 4.02 OD450 and the “1* OD” value [8] was 3.37 OD450.

B4: 9G12 (antibody, human IgG2, V domains shown)
VH: B3 VH with T31G, T49A, D54N, R56N, N57D, K58N, A61T, V70I, L114M
VL: B3 VL with V88I, A89G, Y90V, M94L
notes: Fully human, XenoMouse XMG2; also called #36; Cur12.1 PL09 G12
With B4 the “Binding to SLPI (titre of supernatant)” value [1] was > 64 reciprocal dilution, the OD [2] was 1.36 OD450 and the “2* OD” value [3] was 1.97 OD450. The OD [4] was 0.6 OD450, the OD [5] was 2.25 OD450 and the OD [6] was 0.98 OD450. The OD [7] was 2.19 OD450 and the “1* OD” value [8] was 2 OD450.

Source: patent US20050142137A1 (CURAGEN, published 2005)
